The values below are quoted from earlier work in PMC8869670.

A word on the Kd: it is the constant that tells how readily two partners part at equilibrium.

In this series the target is Thioredoxin (Homo sapiens) (UniProt P10599).
Sequence of Thioredoxin (Homo sapiens) (P10599 2-105): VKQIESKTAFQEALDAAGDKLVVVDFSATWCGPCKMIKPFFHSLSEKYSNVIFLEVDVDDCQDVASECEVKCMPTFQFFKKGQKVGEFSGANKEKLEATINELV

With p53 (from UniProt P04637), the dissociation constant (Kd) is 900 nM.
